Columns and labels:
pick1_mouse Pick1 = pick1_mouse Pick1 (UniProt Q62083)
afad_human AFDN = afad_human AFDN (UniProt P55196)
UniProt P55196, sequence (P55196 whole entry): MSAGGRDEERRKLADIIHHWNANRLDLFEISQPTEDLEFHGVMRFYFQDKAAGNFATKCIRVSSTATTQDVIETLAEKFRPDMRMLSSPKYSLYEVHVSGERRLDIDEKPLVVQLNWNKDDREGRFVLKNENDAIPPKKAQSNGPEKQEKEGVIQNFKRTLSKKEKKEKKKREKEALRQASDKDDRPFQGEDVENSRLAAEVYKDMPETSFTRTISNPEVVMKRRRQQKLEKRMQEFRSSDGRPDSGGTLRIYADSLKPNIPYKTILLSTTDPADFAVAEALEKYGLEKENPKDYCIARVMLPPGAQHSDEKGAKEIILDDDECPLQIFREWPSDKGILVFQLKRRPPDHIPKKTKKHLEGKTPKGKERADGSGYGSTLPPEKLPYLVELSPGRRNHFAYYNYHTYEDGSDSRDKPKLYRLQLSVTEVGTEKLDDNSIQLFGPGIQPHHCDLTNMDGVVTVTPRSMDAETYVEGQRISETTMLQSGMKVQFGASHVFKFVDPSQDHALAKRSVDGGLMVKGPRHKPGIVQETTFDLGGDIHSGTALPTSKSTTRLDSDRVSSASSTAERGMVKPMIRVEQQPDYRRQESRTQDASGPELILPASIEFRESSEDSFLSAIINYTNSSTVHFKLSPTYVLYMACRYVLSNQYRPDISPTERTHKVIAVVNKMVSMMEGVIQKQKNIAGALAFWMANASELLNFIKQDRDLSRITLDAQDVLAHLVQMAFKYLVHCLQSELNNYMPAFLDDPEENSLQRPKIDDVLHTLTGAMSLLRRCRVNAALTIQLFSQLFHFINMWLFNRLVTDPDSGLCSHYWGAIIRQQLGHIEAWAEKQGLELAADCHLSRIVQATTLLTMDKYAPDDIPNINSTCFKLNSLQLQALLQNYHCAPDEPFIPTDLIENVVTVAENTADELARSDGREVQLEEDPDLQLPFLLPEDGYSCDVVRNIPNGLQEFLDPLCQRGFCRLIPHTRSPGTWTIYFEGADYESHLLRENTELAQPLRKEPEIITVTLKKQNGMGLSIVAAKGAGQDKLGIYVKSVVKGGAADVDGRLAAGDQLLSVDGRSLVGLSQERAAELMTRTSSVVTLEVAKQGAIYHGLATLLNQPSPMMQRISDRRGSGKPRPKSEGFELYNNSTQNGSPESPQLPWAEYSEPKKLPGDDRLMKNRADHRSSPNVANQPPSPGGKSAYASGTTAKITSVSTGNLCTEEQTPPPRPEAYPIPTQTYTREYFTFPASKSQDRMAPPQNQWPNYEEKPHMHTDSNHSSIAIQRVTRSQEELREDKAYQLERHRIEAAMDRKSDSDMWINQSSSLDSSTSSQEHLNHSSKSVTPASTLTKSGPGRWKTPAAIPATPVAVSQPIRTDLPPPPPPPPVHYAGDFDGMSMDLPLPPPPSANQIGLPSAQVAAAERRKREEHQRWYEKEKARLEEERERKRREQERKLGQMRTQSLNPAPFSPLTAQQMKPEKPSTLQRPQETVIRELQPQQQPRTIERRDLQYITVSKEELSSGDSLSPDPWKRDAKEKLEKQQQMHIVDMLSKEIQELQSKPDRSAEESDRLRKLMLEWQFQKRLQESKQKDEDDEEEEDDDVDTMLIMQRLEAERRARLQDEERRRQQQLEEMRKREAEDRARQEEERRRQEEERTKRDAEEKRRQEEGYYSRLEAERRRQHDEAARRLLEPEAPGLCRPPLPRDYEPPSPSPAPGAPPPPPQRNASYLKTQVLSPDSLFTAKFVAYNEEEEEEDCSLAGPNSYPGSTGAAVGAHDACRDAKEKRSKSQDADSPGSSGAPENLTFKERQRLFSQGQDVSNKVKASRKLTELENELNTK

UniProt Q62083, sequence (Q62083 whole entry): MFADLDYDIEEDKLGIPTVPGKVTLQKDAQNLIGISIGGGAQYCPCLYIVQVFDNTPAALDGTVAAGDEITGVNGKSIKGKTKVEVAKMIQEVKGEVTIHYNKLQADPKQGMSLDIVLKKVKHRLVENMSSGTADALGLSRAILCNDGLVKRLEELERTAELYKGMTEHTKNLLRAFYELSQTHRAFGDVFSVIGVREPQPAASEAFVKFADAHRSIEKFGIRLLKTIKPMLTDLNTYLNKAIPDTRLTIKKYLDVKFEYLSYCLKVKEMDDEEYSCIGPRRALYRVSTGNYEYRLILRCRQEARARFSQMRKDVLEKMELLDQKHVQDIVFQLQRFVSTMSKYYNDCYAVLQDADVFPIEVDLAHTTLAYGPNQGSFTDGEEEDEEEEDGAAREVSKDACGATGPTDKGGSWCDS

| Substance | effect of a mutation on the interaction (pick1_mouse Pick1) | effect of a mutation on the interaction (afad_human AFDN) |
| --- | --- | --- |
| Nectin-3 (Homo sapiens) (from UniProt Q9NQS3) E546G | disrupting interaction |  |
| Nectin-3 (Homo sapiens) (from UniProt Q9NQS3) V549A | decreasing interaction | disrupting interaction |
| Nectin-3 (Homo sapiens) (from UniProt Q9NQS3) Y548A |  | disrupting interaction |

From IntAct's records for PubMed 15811349
